Target: HA-Cdh1 (UniProt Q9UM11)
Sequence (Q9UM11 whole entry): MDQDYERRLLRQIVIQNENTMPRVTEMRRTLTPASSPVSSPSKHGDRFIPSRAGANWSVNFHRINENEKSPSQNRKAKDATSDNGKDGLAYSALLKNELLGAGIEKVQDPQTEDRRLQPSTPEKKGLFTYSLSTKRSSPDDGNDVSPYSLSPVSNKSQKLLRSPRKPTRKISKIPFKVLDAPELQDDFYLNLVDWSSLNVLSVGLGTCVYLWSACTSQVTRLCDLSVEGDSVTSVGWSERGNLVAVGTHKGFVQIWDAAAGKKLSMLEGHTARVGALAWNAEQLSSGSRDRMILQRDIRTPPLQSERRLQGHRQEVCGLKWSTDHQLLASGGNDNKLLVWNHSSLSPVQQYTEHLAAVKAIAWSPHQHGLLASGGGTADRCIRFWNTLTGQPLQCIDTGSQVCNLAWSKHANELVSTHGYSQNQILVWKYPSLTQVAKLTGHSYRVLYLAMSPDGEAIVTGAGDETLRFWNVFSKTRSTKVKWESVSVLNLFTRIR

Substance: recombinant human cyclin D1+CDK4 proteins (Abcam ab55695)
- in vitro kinase assay (thiophosphate ester immunoblot): CDK4 specifically phosphorylates Cdh1 at S163

Reference: patent US20250127783
